For the test, the target named is Human recombinant melanocortin MC1 receptor (human) (UniProt Q01726). Briefly: radioligand competition, displacement of [125I]NDP-alpha-MSH from human MC1R (CHO-K1), Example 7.

Square brackets hold non-standard residues; d marks the D form. Ends that are not written are not given here.

Chain of Human recombinant melanocortin MC1 receptor (human) (Q01726 whole entry): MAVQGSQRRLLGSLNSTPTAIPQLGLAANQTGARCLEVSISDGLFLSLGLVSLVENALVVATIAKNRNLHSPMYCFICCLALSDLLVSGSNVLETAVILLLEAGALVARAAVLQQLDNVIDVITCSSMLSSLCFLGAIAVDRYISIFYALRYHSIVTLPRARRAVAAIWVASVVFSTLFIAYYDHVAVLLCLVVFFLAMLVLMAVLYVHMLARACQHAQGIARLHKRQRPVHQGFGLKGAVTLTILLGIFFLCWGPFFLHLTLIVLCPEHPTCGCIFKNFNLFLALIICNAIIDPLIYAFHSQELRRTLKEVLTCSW

B1: SEQ ID NO: 40 (peptide)
peptide: A[dL][dF]R[dW]FKPV-NH2
modifications: N-terminus assumed
SMILES: CC(C)C[C@@H](NC(=O)[C@H](C)N)C(=O)N[C@H](Cc1ccccc1)C(=O)N[C@@H](CCCNC(=N)N)C(=O)N[C@H](Cc1c[nH]c2ccccc12)C(=O)N[C@@H](Cc1ccccc1)C(=O)N[C@@H](CCCCN)C(=O)N1CCC[C@H]1C(=O)N[C@H](C(N)=O)C(C)C
As a reminder, the IC50 is the concentration at which inhibition is half-maximal. As to B1, the IC50 was > 500 nM.

B2: SEQ ID NO: 35 (peptide)
peptide: MV[dF][dR][dW]FKPV-NH2
modifications: N-terminus assumed
SMILES: CSCC[C@H](N)C(=O)N[C@H](C(=O)N[C@H](Cc1ccccc1)C(=O)N[C@H](CCCNC(=N)N)C(=O)N[C@H](Cc1c[nH]c2ccccc12)C(=O)N[C@@H](Cc1ccccc1)C(=O)N[C@@H](CCCCN)C(=O)N1CCC[C@H]1C(=O)N[C@H](C(N)=O)C(C)C)C(C)C
In the case of B2, the concentration for half-maximal inhibition (IC50) was > 500 nM.

For the origin of these results see patent US20250026787A1, “PEPTIDES AND METHODS FOR REDUCING SKIN PIGMENTATION” (Glo Pharma, Inc., priority 2021, published 2025).
